{"source": "patent US20240150440A1", "about": "(LUMEN BIOSCIENCE, published 2024)", "key": {"[1]": {"biological_target": "T1, SARS-COV-2 Wuhan Reference RBD (SARS-CoV-2, UniProt P0DTC2 319-541)"}, "[2]": {"biological_target": "T2, recombinant SARS-CoV-2 RBD with C-terminal AviTag (SARS-CoV-2, UniProt P0DTC2 319-541)"}, "[3]": {"biological_target": "T2, recombinant SARS-CoV-2 RBD with …", "test": "BLI, biotinylated RBD on streptavidin biosensors"}, "[4]": {"biological_target": "T2, recombinant SARS-CoV-2 RBD with …", "test": "ELISA, competition with coated ACE2-Fc for RBD [Cont. 5]"}, "[5]": {"biological_target": "T2, recombinant SARS-CoV-2 RBD with …", "test": "ELISA, competition with coated ACE2-Fc for RBD [Cont. 3]"}, "[6]": {"biological_target": "T1, SARS-COV-2 Wuhan Reference RBD", "test": "ELISA, RBD coated"}, "[7]": {"biological_target": "T2, recombinant SARS-CoV-2 RBD with …", "test": "BLI, biotinylated RBD on streptavidin biosensors; OR: over-range [Cont. 6]"}, "[8]": {"biological_target": "T2, recombinant SARS-CoV-2 RBD with …", "test": "BLI, biotinylated RBD on streptavidin biosensors; OR: over-range [Cont. 7]"}, "[9]": {"biological_target": "T2, recombinant SARS-CoV-2 RBD with …", "test": "BLI, biotinylated RBD on streptavidin biosensors; OR: over-range"}, "[10]": {"biological_target": "T2, recombinant SARS-CoV-2 RBD with …", "test": "ELISA, competition with coated ACE2-Fc for RBD"}, "[11]": {"biological_target": "T2, recombinant SARS-CoV-2 RBD with …", "remark": "listed apart in the source"}, "[12]": {"biological_target": "T2, recombinant SARS-CoV-2 RBD with …", "remark": "listed apart in the source"}, "[13]": {"biological_target": "T2, recombinant SARS-CoV-2 RBD with …", "remark": "listed apart in the source"}, "[14]": {"biological_target": "T2, recombinant SARS-CoV-2 RBD with …", "test": "ELISA, competition with coated ACE2-Fc for RBD [Cont. 4]"}, "[15]": {"biological_target": "T2, recombinant SARS-CoV-2 RBD with …", "remark": "listed apart in the source"}}, "note": "Like-named read-outs stand apart in the source and are kept apart here.", "data": [{"binder": "PP788 (VHH, not shown: large carriers; small tags and cut ends) VHH: QVQLVESGGGLVQPGGSLRLSCAASGSIESINAIHWFRQAPGKAREEVAAITENDVDYYADSVKGRFTISRDNAKNTVYLQMNSLKPEDTAVYYCASLSSGYQYVGFRYWGQGTQVTVSS", "values": [{"measurement": "EC50", "setting": "[1]", "result": 1.56, "unit": "nM"}]}, {"binder": "R5A-B7 (competition ELISA sample) (VHH) VHH: QVQLVESGGGLVQPGGSLRLSCAASGAFFSYGAIHWFRQAPGKQREEVAAITSGGSTGYADSVKGRFTISRDNAKNTVYLQMNSLKPEDTAVYYCNAGVVWLPSNAAYNLWGQGTQVTVSS", "values": [{"measurement": "Kd", "setting": "[2]", "result": 13.1, "unit": "nM"}]}, {"binder": "MBP-R2B-D5-H6 (VHH, monomer) VHH: QVQLVESGGGLVQPGGSLRLSCAASGYADEINMVHWYRQAPGKGREFVAAIASGGSTFYADSVKGRFTISRDNAKNTVYLQMNSLKPEDTAVYYCAAIPRPSLSYAHDYAYWGQGTQVTVSS", "values": [{"measurement": "Kd", "setting": "[3]", "result": 82, "unit": "nM"}]}, {"binder": "PP1141 MBP-4B0F-PAPA-R5d-D4-H6 (VHH, Form: Heptamer) VHH: QVQLVESGGGLVQPGGSLRLSCAASGSDFTINAMHWFRQAPGKQREFVATITSTSSTAYRDSVKGRFTISRDNAKNTVYLQMNSLKPEDTAVYYCAAFAVRDADTAGWTARDYWGQGTQVTVSS", "values": [{"measurement": "IC50", "setting": "[4]", "result": 74.6, "unit": "nM"}]}, {"binder": "MBP-5HVZ-R5B-G1-H6 (VHH) VHH: QVQLVESGGGLVQPGGSLRLSCAASGSIGQIVLVHWFRQAPGKQRELVAGITSPSSTYYADSVKGRFTISRDNAKNTVYLQMNSLKPEDTAVYYCNTELEGKTQGFTGKTVWYDYWGQGTQVTVSS", "values": [{"measurement": "IC50", "setting": "[5]", "result": 26.6, "unit": "nM"}]}, {"binder": "PP1150 MBP-5HVZ-PAPA-R5b-G1-H6 (VHH, Form: Dimer) VHH: QVQLVESGGGLVQPGGSLRLSCAASGSIGQIVLVHWFRQAPGKQRELVAGITSPSSTYYADSVKGRFTISRDNAKNTVYLQMNSLKPEDTAVYYCNTELEGKTQGFTGKTVWYDYWGQGTQVTVSS", "values": [{"measurement": "IC50", "setting": "[5]", "result": 5.2, "unit": "nM"}, {"measurement": "EC50", "setting": "[6]", "result": 0.64, "unit": "nM"}]}, {"binder": "PP887 MBP-S1b-E7-H6 (VHH, Form: Monomer) VHH: QVQLVESGGGLVQPGGSLRLSCAASGGEFSDNGLHWFRQAPGKQREFVATASSDGSTQYRDSVKGRFTISRDNAKNTVYLQMNSLKPEDTAVYYCTALLMSSAGEYDVWGQGTQVTVSS", "values": [{"measurement": "Kd", "setting": "[7]", "result": "~6570", "unit": "nM"}]}, {"binder": "PP888 MBP-S1b-E11-H6 (VHH, Form: Monomer) VHH: QVQLVESGGGLVQPGGSLRLSCAASGSYASIASMHWFRQAPGKEREFVAGVTSGGSTNYGDSVKGRFTISRDNAKNTVYLQMNSLKPEDTAVYYCNALAGANYESQWEEYNYWGQGTQVTVSS", "values": [{"measurement": "Kd", "setting": "[8]", "result": "~5290", "unit": "nM"}]}, {"binder": "PP806 MBP-R2B-E6-H6 (VHH, Form: Monomer) VHH: QVQLVESGGGLVQPGGSLRLSCAASGGVTRGNAMAWYRQAPGKQREIVAAIDNGGSHAYGDSVKGRFTISRDNAKNTVYLQMNSLKPEDTAVYYCAVFPDHDSEQASIDRVYWGQGTQVTVSS", "values": [{"measurement": "Kd", "setting": "[9]", "result": "~1400", "unit": "nM"}]}, {"binder": "dimeric VHH (VHH-5HVZ-MBP) R2B-E6 (VHH) VHH: QVQLVESGGGLVQPGGSLRLSCAASGGVTRGNAMAWYRQAPGKQREIVAAIDNGGSHAYGDSVKGRFTISRDNAKNTVYLQMNSLKPEDTAVYYCAVFPDHDSEQASIDRVYWGQGTQVTVSS", "values": [{"measurement": "IC50", "setting": "[10]", "result": 17.9, "unit": "nM"}, {"measurement": "Kd", "setting": "[3]", "result": 10.3, "unit": "nM"}]}, {"binder": "MBP-5HVZ-R5d-E1-H6 (VHH, not shown: large carriers; small tags and cut ends) VHH: QVQLVESGGGLVQPGGSLRLSCAASGSSFSINWMHWFRQAPGKQREGVASINSTGSDYYADSVKGRFTISRDNAKNTVYLQMNSLKPEDTAVYYCAAAITQPMPQGKGAPPGFYYWGQGTQVTVSS", "values": [{"measurement": "Kd", "setting": "[11]", "result": 7.98, "unit": "nM"}]}, {"binder": "MBP-5HVZ-R5A-E5-H6 (VHH, not shown: large carriers; small tags and cut ends) VHH: QVQLVESGGGLVQPGGSLRLSCAASGYDFDILRMAWFRQAPGKEREMVAAITSAESVNYEDSVKGRFTISRDNAKNTVYLQMNSLKPEDTAVYYCATYDYTDDYGYASWGQGTQVTVSS", "values": [{"measurement": "Kd", "setting": "[12]", "result": "~31", "unit": "nM"}, {"measurement": "IC50", "setting": "[13]", "result": 17.7, "unit": "nM"}, {"measurement": "Kd", "setting": "[13]", "result": 31, "unit": "nM"}]}, {"binder": "PP1152 MBP-5HVZ-PAPA-R5d-B6-H6 (VHH, Form: Dimer) VHH: QVQLVESGGGLVQPGGSLRLSCAASGRILAANIVHWYRQAPGKEREGVAGITSGGGSYYADSVKGRFTISRDNAKNTVYLQMNSLKPEDTAVYYCNALGLGQSSLYRSADPYDSWGQGTQVTVSS", "values": [{"measurement": "IC50", "setting": "[14]", "result": 4.7, "unit": "nM"}]}, {"binder": "PP1140 MBP-4B0F-PAPA-R5d-B6-H6 (VHH, Form: Heptamer) VHH: QVQLVESGGGLVQPGGSLRLSCAASGRILAANIVHWYRQAPGKEREGVAGITSGGGSYYADSVKGRFTISRDNAKNTVYLQMNSLKPEDTAVYYCNALGLGQSSLYRSADPYDSWGQGTQVTVSS", "values": [{"measurement": "IC50", "setting": "[4]", "result": 106, "unit": "nM"}]}, {"binder": "MBP-5HVZ-R5C-B1-H6 (VHH, not shown: large carriers; small tags and cut ends) VHH: QVQLVESGGGLVQPGGSLRLSCAASGSGFSNNAMHWYRQAPGKQREGVAGITSGSVSFYADSVKGRFTISRDNAKNTVYLQMNSLKPEDTAVYYCAAVTGSSTGNAGQGYLTWGQGTQVTVSS", "values": [{"measurement": "Kd", "setting": "[12]", "result": 10, "unit": "nM"}, {"measurement": "IC50", "setting": "[15]", "result": 0.3, "unit": "nM"}, {"measurement": "Kd", "setting": "[15]", "result": 9.98, "unit": "nM"}]}, {"binder": "PP1151 MBP-5HVZ-PAPA-R5d-B5-H6 (VHH, Form: Dimer) VHH: QVQLVESGGGLVQPGGSLRLSCAASGSRDSIVAMHWYRQAPGKGREGVAGITSRWVTYYADSVKGRFTISRDNAKNTVYLQMNSLKPEDTAVYYCNAPVYYDTEWYDIWGQGTQVTVSS", "values": [{"measurement": "IC50", "setting": "[14]", "result": 23.1, "unit": "nM"}]}]}
